T1: mouse UBA7 (mouse, UniProt Q9DBK7 1-977)
T1 sequence (looked up): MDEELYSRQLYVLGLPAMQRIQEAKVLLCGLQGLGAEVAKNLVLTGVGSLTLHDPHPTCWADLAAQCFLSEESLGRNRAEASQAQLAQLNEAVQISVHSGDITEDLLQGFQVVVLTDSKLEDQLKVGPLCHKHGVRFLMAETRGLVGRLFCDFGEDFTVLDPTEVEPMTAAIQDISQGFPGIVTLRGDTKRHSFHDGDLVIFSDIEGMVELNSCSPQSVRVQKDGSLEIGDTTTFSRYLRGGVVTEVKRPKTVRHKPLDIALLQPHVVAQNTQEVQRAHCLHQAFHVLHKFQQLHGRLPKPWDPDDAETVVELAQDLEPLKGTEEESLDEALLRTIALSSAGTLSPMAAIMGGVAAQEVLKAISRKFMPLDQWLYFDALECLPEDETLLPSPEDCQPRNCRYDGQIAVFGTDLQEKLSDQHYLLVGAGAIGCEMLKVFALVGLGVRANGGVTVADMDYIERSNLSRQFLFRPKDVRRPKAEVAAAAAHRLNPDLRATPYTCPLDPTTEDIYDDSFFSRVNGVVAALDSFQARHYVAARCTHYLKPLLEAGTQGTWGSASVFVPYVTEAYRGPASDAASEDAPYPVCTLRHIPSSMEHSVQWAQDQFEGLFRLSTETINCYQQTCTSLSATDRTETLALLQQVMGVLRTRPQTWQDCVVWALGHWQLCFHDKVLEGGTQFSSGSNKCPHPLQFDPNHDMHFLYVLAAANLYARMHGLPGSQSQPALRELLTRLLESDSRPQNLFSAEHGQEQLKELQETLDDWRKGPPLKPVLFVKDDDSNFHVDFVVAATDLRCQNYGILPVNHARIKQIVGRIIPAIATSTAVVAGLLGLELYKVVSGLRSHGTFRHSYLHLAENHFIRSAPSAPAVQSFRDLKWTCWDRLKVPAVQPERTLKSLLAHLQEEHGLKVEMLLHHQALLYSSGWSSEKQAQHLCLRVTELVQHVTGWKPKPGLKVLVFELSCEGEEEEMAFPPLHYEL

T2: human UBA7 (human, UniProt P41226 1-1012)
T2 sequence: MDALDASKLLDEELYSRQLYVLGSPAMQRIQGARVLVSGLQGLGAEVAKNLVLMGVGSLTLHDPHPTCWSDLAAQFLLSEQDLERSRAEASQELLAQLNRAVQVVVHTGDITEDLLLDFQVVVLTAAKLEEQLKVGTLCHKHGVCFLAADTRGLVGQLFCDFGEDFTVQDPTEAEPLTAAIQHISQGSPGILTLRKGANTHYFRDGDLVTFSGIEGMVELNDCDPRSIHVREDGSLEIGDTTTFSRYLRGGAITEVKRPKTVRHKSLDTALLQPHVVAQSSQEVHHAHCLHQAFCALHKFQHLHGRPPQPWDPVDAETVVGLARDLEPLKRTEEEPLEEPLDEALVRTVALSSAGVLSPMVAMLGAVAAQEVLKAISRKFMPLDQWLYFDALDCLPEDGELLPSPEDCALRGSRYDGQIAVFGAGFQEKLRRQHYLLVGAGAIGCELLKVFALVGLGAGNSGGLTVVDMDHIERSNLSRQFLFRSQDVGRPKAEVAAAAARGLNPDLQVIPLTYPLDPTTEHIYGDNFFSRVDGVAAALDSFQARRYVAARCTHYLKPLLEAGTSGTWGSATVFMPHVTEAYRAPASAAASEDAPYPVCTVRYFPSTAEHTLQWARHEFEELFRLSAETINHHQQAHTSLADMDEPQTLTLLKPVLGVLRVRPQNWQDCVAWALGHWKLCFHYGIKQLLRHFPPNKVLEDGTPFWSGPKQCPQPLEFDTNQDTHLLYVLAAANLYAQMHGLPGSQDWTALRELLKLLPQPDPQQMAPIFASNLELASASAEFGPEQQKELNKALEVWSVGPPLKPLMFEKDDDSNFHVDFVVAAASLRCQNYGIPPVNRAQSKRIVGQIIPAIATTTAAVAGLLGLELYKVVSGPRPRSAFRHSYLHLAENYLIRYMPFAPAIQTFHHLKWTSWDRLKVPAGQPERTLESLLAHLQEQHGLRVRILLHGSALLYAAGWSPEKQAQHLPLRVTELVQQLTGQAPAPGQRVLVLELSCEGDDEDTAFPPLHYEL


Tests used:
mouse UBA7 = target: T1, mouse UBA7; experiment: disulfide complex formation on non-reducing SDS-PAGE
human UBA7 = target: T2, human UBA7; experiment: as above

Binder | binding result (mouse UBA7) | binding result (human UBA7)
mouse UBE2L6 (enzyme, UniProt Q9QZU9 1-153, looked up) MMASKRVAKELESLSKELPPYLRQLSSDDANVLVWHMLLLPDQLPYGLKAFQVRIDFPREYPFKPPTLRFTTKIYHPNVREDGLVCLPLISNENWKPYTKPYQVLEALNVLVSKPNLEEPVRLELADLLTQNPEMFRKKAEEFTLKFGVDRPS | binds | –
human UBE2L6 (enzyme) not shown | – | binds
